test: soluble fraction after stress (log2 fold change); higher = more stays soluble; pooled small domains, quantitative proteomics; conditions: stress: pH 4
Outline: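 Pooled custom libraries of small protein domains were stressed at pH 4 and then measured by high-throughput quantitative proteomics. The fold change in the amount of each domain that stays soluble after the acid stress serves as a measure of aggregation propensity. Fold changes are given on a log2 scale, and higher values mean more of the domain stayed soluble.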

Sequence	soluble fraction (log2)
HMGNLIIFYDEGIGSGPLMKAVNDSGVSLVYEYKNLHGIAIRPSAKTNIQDAIAYFQKVNGVLSVEQ	-0.65
HMGNNKLVLSLAVALKNTPNFLKNYNYKISKDKKFIEILLSKQINEVSDIIINLKKNNINIVDLNIKKR	-0.0131
HMGNNTEITYSEFIRQAEAGNVQYVTVDGEKLLISATDGKSYYTINPRDDQMTDRLLNSGVEIRAEPQ	-0.482
HMGNRQEQVRIIRDLWRQLADAGQPVPAKHLTLDLDALDATQLTKLEDQAHGWLAKLSAQADLADAA	0.22
HMGNTMIVILKHEARQEQIDRLKQFLLGMGLRIDESKGENSTILGLVGDTTRVDADLISSLDAVEAVRRV	-0.626
HMGNWENVEKETTEAIMAVKNGEAVWVDLAPANRMIRQMQHELVEQYGLLSQSYGKEPKRRIRIFQNP	0.0117
HMGPDALSIGRRVRQVRTARGMTLDELAAAVSRAPSQLSMIETGKREPKLSLLQAIARALGTTIDALLT	0.126
HMGPDGLFAKFREPETGKDLLITQNVFVEQVLIKGVLTRTLTDAEANTYRAPFVNPEKRFPIYVWPNELP	-0.0131
HMGPEAFPVPYIVDIELDRAIYVIEQSGFIVGQKLEANDDNVPRGFVISQNPAAGTKLGPNSVVDLVISSG	-0.893
HMGPEQLIGKTGIAASELAPRGEVKIEGQIWRAETVGDHVKQGEPVEVVSREGLILRVKPKHPQTRG	-0.0209
HMGPEVQLAYSEFLAKVKVGEVNDVMVKGNEIHGHFSDGRTFSTYSPNDPDLVEKLNKNKVMIKAAPP	-0.0878
HMGPFYFDQDGKAYSGLLNRNGEILYFADPFNAAVKNTTKTIDGKTYTFNQNGRATSIDGIPLEPP	-0.17
HMGPGDTTIPTTIIGMSLEEARNELSAAGLLVARIIPVDSNSRTGTVLKITPDAGSIIKAGSGVELEIAS	0.206
HMGPGFVGGSVLSGGNRGEGDPVANAQVFITDMDDNVVAFTKTDAEGNFDMTNLAYGDYKMYVDILNK	-0.741
HMGPGSYVVNVKPYAYVSINGRDYGRTPVGPIRLDPGTYKVVFTHEHRPSFSRTIVVEAGRETFETFPYPG	-0.107
HMGPLPIDSRYFNNLVPYTGITHVNSVIPEAERHIGLTVVVKTGSTYSEYWYRTGVTNSSLELKT	-0.726
HMGPLYARVKAIVLARIMGGDWPPGTALPAEMELARALGVSQGTVRKALDALTAEQVVVRRQGSGTYVAE	-0.158
HMGPNYYDILEIPTDASPSEITQAFRKKALEWHPDKNPNNLEEATSRFIEIVEAYRVLSSKDSKLQYDTG	-0.422
HMGPSVGMTVGEMERDLIFRTLETVGDNRTKAADMLGISIRTLRNKLNEYREAGFEWPRKAG	-0.0611
HMGQAVTMLKAGRLLANAKGTGAPVRSLEPGMLLYPTGVKEGTMWEVEDEMGNKGWVNSTLMETA	-0.284
HMGQAVTVPELKGLSFDEAIEKLDDAGLKYEVVDSNYVEDMKPGTVFETLPEAGSRVKPRRIVFLTINAF	-0.689
HMGQDTTIVVRRGESLLGIAARLLPATDFYTTGELAEGIRTASGMENDRLIPGQTLRVPLNSG	0.0588
HMGQGEISVPRLEGLSLRETSELLGLFGLRLEAAGSGIALSQNPPAGARVKAGDVIQVDFGEPGN	0.0931
HMGQHSAELKLHPQDLGQVTISMKVEDNQAQLQMVSGHGHVRAALEAALPQLRSQLADSGIQLTQSSIS	-0.223
HMGQISDEETLKTVASRIIDANPDEARKYRSGKTGLLGFFVGQVMKATQGEANPKLASRIVKELLE	≥ 0.43
HMGQLIVTIPNFERRPAEQAIQKLEELGLVPEEKQIYHDDIPAGSVIYTDPSKDSQVNAGTKVYVYVSLG	-0.0832
HMGQMGHAVVAKTDLAVGTPLTRDLVAVREVPVEWLHSSAITPEQFERAAGAVLAQPARGGEPLVWSQLEE	-0.201
HMGQPRPLTAEDFDFLSDDEIAEMRKALSNGEMLRLRELIAQIGEKRPFLAERLLVLAKQYNYEDLSRLLE	-0.831

Sequence	soluble fraction (log2)
HMGQQPPVTEIYKNHDGNKDGLLEAGEVTGSRYARQFPRWDVNGDQKVSPQEVIAFRKRFGIAADGTLL	0.0862
HMGQQTVEPLSRRELEVLSLLAKGLSNQQIADRLVISVRTVKKHVENIHGKLGVQSRTQAVARARELGLV	-0.688
HMGQTYTITINPTPADAKVIIDGVATNSVEAIDGRTLIWSVSKPGYLTKSGNYTVTGKNETLNIVLKEDPD	-0.283
HMGQVLEGVFRRKANGKNAFIPDGGGEPILVAERNSAHAMDGDRVKATLLARRKHHVREAQVTEILKRSSK	0.0841
HMGQVSDENQLNKVIDEVIKNYPIQVEQFKAGKEPILQFLKGMVMKATEGSADPAVAEKLLRKKL	0.0192
HMGQYLDAATVAAVYHAYHARNWTQATLAKELKVARPTLSNVLNGREAPSVELAARIRAFLGSPEP	≥ 0.43
HMGRAAEETETFRTQGELDARIKELQGQMRDAAANLEFERAAGLRDTLKRLRTRGLGLSASP	-0.0313
HMGRENGTVKWFNTSKGFGFITRDDGGDVFVHFRSIQGEGHRALQEGQRVSYVVANRDKGLQAEDVTILN	-0.107
HMGRKRLADYGLNDTEQKIVRKIADGLSNREIAQALYLSEGTVKNYITDILGKLELRDRTQIAIFYLREIG	-0.244
HMGRLTTKIVLYDRIENIVPERRKELVADIEKRIGVKVEVLEIGHVDFVRDAAWLKVSYYLAPGE	-1.35
HMGRNSTPKEPLKKFEVSPITEKEVRILDGRFGPYITDGATNVTVPKTITIEEITFERALDMLAEKAAKGP	-0.153
HMGRPQISDELRNAIIEVAKDNRDWGYIRIQGQLKYLGYRVSTATIGKVLKKAGLEPQPDRRRK	-0.667
HMGRPWRIGDVVNVSRPTGDGGGFTKGLITRIYPTTVQVTWNPDLQHARPWTTMEKKQYLIFVYHDDE	≥ 0.43
HMGRQTITLPDFSGQDLEQVKARLTEWGLVPEEKSVFSDSVPLGSVVRTVPAEGDEVSVGDTVTVYKSLGR	0.252
HMGRRDLSWQPAAGGVSIDGLKAGEAWTLFGLNGRILKQGYAPEGQMSLAVNAGLFVLRGAESGVIRIAVA	-0.255
HMGRSYTIKSGDTLWAIATRYYGNGAQYSKIYNANKGTIESVAKSRGFRSSQNGHWIFPGTSITI	0.056
HMGRTITVGIAEDADIKDIAKMLEEKGLISDYRLFVVQELLSAQHDKIKPGIYDLSTDMKAEEMLEILAG	-1.33
HMGRTKEEIFNILKERIVTLQYEPGKILNEIELSEEFEVSRTPIRTVFQQLEAVKLVSIVPRYGVQVA	-1.11
HMGRYATVPDVVGSTPEVARELIRSEGLRYVLSEETVYSDSDTGTVGRTDPESGTRMSADDEVVVYLS	-1.27
HMGRYVIQIASFSSKNNAIEAADKLGGFVVQSGRFYRVRTGPFATRGEADAALASARRVGYRDAFIDTS	-0.233
HMGSAIAHAIASLPDRYRELLLLKYDTGYSEKEIAQLLGMTEANVKKTIQRAKAKLQTLLDEMEA	-0.354
HMGSAKAQLYDLMNAHQVTRNQIQDIVAEKGYFPAGTPIENYPDDFVKGVLVGAWDQVHKAILDKEI	-0.437
HMGSEISLNAFNIPKGSVSVTAGGTKLVENQDYTVDYTLGRIKILNEGILNSGVPIQVNFENNTLFN	-0.087
HMGSEYILTIIPTPADATVFINGVKKNSASGVNGQILSWEVTKEGYIPQSGTFTINGKNETIEVVLQPQT	-0.577
HMGSFFSKATAPVRTTGGDGLYKHGSIWFNTSTGRLFVYIPDDRYTGLLDTHNGDIGYWVDVS	-1.22
HMGSFGAMLKRNRKLAGLTQEQLAEKLDVSTVAVQNWESGKNQIRSEKLTKLSYLFNIPLETLIHEMLIS	0.0247
HMGSFISADEALAKALSHAGLDQSAIRELEMDSELDDDVPHYSIDFKSGNLEYEYEISATDGSVLKFEQD	-0.0935

Reference: the domain aggregation screens of Martell et al. (2025)
